# Substitutions are numbered along the chain they refer to. Peptide text beside a SMILES is read from it. * marks the point of attachment. Cbz = O=C(OCc1ccccc1)*
# B1: endogenous SSB-2 protein (mouse bone marrow-derived macrophages) (other)
# chain: MGQTALARGSSSTPTSQALYSDFSPPEGLEELLSAPPPDLVAQRHHGWNPKDCSENIDVKEGGLCFERRPVAQSTDGVRGKRGYSRGLHAWEISWPLEQRGTHAVVGVATALAPLQADHYAALLGSNSESWGWDIGRGKLYHQSKGLEAPQYPAGPQGEQLVVPERLLVVLDMEEGTLGYSIGGTYLGPAFRGLKGRTLYPSVSAVWGQCQVRIRYMGERRVEEPQSLLHLSRLCVRHALGDTRLGQISTLPLPPAMKRYLLYK
# notes: Immunoprecipitated with rabbit anti-SSB-2 antibody coupled to NHS-Sepharose; also called SPSB2
# B2: iNOS N-terminal peptide I, wild-type, Ac-KEEKDINNNVKKT-NH2 (peptide)
# peptide: Ac-KEEKDINNNVKKT-NH2
# notes: Synthetic peptide (GL Biochem); also called wild-type iNOS peptide; iNOS peptide
# B3: Flag-tagged SSB-3 (murine, expressed in 293T cells) (other, mouse)
# chain: DYKDDDDKMARRTRSSRAWHFVLSAARRDTDARAVALAGSSNWGYDSDGQHSDSDSDPEYSSLPPSIPSAVPVTGESFCDCEGQNEATFCNSLHTAHRGKDCRCGEEDEDFDWVWDDLNKSSATLLSCDNRKVSFHMEYSCGTAAIRGTKELGDGQHFWEIKMTSPVYGTDMMVGIGTSDVDLDKYHHTFCSLLGRDEDSWGLSYTGLLHHKGDKTSFSSRFGQGSIIGVHLDTWHGTLTFFKNRKCIGVAATRLQNRRFYPMVCSTAAKSSMKVIRSCASSTSLQYLCCYRLRQLRPNSGDTLEGLPLPPGLKQVLHNKLGWVLSMNCNHWKSPVPPPGTATPGAESLETRPCQRKRCRRS
# notes: also called SPSB3
# Assays:
# [1] = system: iNOS degradation in Ssb-1T/+ and Ssb-2T/+ BMDM; test: iNOS degradation post-wash in SSB transgenic BMDM (Western blot); type: cell-based, mouse; conditions: MG-132 10 μM post-wash
# Protocol: FIG. 11. SSB-1 and SSB-2 regulation of iNOS expression is dependent on the proteasome. BMDM from (A) littermate controls (Ssb-1^+/+) and SSB-1-transgenic mice (Ssb-1^T/+) or (B) Ssb-1^+/+ and SSB-2-transgenic mice (Ssb-2^T/+) were incubated with IFNγ and LPS (20 ng/ml) for 16 h, washed, replenished with fresh medium with (+) or without (−) the proteasomal inhibitor MG-132 (10 μM) and lysed at the indicated times post-wash. Proteins were separated by SDS-PAGE and analysed by Western blot using anti-iNOS antibodies. Equivalent protein loading was confirmed by stripping and reprobing the membrane with anti-tubulin antibodies.
# Bone marrow-derived macrophages were generated as described and re-plated at 1.0×10^6 cells/well on 6-well plates (Costar) in DME containing 10% FCS and 20% L-cell conditioned media. Cells were incubated with IFNγ and LPS as described, and lysed in KALB lysis buffer (Nicholson et al., 1995) containing protease inhibitors (Complete Cocktail tablets, Roche), 1 mM phenylmethylsulphonyl fluoride, 1 mM Na3VO4 and 1 mM NaF. Proteins were immunoprecipitated using anti-Flag antibody conjugated to Sepharose (M2; EASTMAN KODAK). Proteins were separated by sodium dodecyl sulphatepolyacrylamide gel electrophoresis (SDS-PAGE) under reducing conditions and electrophoretically transferred to Biotrace PVDF membranes (Pall Corp. Ann Arbor, Mich.). […]
# [2] = target: T1, full-length iNOS protein (endogenous, from LPS/IFNγ-treated mouse bone marrow-derived macrophages) (mouse, UniProt P29477 1-1144); test: anti-SSB-2 immunoprecipitation from BMDM, anti-iNOS Western blot (FIG. 5B)
# T1 construct: Not purified: present in macrophage lysates; Detected by Western blot with anti-iNOS antibody; also called NOS2; inducible nitric oxide synthase
# T1 sequence: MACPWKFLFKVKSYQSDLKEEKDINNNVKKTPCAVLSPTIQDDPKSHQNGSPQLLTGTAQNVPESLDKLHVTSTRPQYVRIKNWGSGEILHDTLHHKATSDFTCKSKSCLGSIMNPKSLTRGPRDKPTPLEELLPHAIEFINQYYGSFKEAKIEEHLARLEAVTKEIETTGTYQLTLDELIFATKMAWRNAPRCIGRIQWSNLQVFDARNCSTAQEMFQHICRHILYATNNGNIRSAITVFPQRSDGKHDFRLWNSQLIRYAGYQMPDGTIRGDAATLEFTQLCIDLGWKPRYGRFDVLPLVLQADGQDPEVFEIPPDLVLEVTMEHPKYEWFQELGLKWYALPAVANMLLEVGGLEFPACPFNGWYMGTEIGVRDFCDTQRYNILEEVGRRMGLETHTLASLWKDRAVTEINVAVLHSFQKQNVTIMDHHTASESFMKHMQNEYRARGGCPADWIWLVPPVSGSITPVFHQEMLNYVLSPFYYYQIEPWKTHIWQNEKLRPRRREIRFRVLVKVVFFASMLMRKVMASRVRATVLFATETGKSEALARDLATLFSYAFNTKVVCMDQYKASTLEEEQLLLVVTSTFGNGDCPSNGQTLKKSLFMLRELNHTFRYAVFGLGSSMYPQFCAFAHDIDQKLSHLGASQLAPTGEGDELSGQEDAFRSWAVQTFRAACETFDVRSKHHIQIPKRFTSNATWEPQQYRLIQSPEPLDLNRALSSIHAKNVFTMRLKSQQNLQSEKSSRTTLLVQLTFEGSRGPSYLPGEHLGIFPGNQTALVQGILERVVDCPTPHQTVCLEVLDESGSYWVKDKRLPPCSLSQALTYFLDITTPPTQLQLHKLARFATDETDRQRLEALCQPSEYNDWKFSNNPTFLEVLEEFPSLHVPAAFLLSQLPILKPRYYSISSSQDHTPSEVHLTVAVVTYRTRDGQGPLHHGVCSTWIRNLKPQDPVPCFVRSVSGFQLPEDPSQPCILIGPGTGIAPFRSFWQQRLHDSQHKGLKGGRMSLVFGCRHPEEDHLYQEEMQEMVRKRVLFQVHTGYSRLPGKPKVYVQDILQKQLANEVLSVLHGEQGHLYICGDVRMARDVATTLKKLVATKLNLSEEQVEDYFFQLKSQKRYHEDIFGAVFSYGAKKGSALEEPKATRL
# Protocol: FIG. 5. SSB-2 interacts with endogenous full-length iNOS protein. (A) SSB-2 interacts with full-length iNOS and this requires tyrosine 120 in the SPRY domain peptide-binding surface. Bone marrow-derived macrophages (BMDM) from C57BL/6 mice were incubated with 20 ng/ml IFNγ and 1 μg/ml LPS for 16 h, lysed and incubated with NHS-sepharose beads coupled with recombinant SSB-2 or SSB-2-Y120A proteins, or with uncoupled NHS-sepharose beads (CON), for 3 h at 4° C. Associated proteins were then separated by SDS-PAGE and transferred to PVDF membrane. iNOS was detected by Western blot with specific anti-iNOS antibodies (upper panel). Equivalent amounts of SSB-2 and SSB-2-Y120A were confirmed by reprobe with anti-SSB-2 antibodies (lower panel). (B) Interaction between endogenous iNOS and SSB-2 proteins. Bone marrow-derived macrophages from SSB-2-deficient mice (Ssb-2^{-/-}) or wild-type littermate controls (Ssb-2^{+/+}) were incubated with (+) or without (−) 20 ng/ml IFNγ and 20 ng/ml LPS for 16 h, lysed and endogenous SSB-2 proteins immunoprecipitated using rabbit anti-SSB-2 antibody coupled to NHS-Sepharose. Immunoprecipitates were separated by SDS-PAGE and associated iNOS protein detected by Western blot with specific antibodies (upper panel). […]
# [3] = target: T2, Y120A-SSB-2ΔSB (murine SSB-2 residues 12-224 with tyrosine 120 mutated to alanine) (mouse, UniProt O88838 12-224); test: ITC, 25 C, wild-type peptide with Y120A-SSB-2ΔSB
# T2 construct: also called SSB-2-Y120A
# T2 chain: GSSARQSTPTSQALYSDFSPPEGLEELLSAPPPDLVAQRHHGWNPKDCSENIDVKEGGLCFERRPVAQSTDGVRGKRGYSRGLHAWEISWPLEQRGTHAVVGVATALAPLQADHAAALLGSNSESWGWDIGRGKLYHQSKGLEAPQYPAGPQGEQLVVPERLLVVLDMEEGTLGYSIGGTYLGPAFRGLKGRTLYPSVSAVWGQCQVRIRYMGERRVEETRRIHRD
# Protocol: (§1) FIG. 3. Typical ITC raw data and titration curves for SSB-2 and iNOS peptide interactions. Titration curves were fitted using the “One Set of Sites” model in MicroCal Origin.
# (§2) Wild-type and mutant iNOS peptides (Table 2), corresponding to Lys19-Thr31 of mouse iNOS, were synthesized by GL Biochem (Shanghai) Ltd. These peptides were N-terminal acetylated and C-terminal amidated. All ITC measurements were carried out at 25° C. using a Microcal omega VP-ITC (Microcal Inc., Northampton, Mass.). SSB-2ΔSB was dialysed against buffer (100 mM TrisHCl, 150 mM NaCl, pH 8.0), and wild-type and mutant iNOS N-terminal peptides were prepared in the same buffer from 5 mM stocks. Solutions of 5 to 10 μM SSB-2ΔSB in the cell were titrated by injection of a total of 290 μL of 50-200 μM of iNOS peptides. Data analysis was performed using the evaluation software, MicroCal Origin version 5.0. All curves were fitted using the nonlinear least-squares fitter and the “One Set of Sites” model.
# [4] = target: T2, Y120A-SSB-2ΔSB (murine SSB-2 residues …); test: ITC
# Protocol: as §2
# Mutation of Glu21 had no effect on SSB-2:iNOS peptide binding. […] Binding of an SSB-2-SPRY domain in which tyrosine 120 had. been mutated to alanine (Y120A-SSB-2ΔSB) was assessed by ITC.
# [5] = target: T3, SSB-2ΔSB (recombinant murine SSB-2 SPRY domain, residues 12-224) (mouse, UniProt O88838 12-224); test: ITC, 25 C, peptide injected into SSB-2ΔSB
# T3 construct: 226 residues in total; expressed as GST fusion in E. coli, GST cleaved off with thrombin; 15N-labelled for NMR; coupled to NHS-Sepharose for pull-downs; also called SPSB2
# T3 sequence: T2 chain with A115Y
# Protocol: as §1, §2
# [6] = target: T1, full-length iNOS protein (endogenous, …); test: anti-Flag co-immunoprecipitation from mixed 293T and BMDM lysates, anti-iNOS Western blot
# From the text: FIG. 6. Interaction between iNOS and SSB-1, -2, and -4 and SSB-2 residues affecting 10 iNOS binding. (A) iNOS interacts preferentially with SSB-2 and SSB-4. 293T cells were transiently transfected with vector alone or cDNA encoding either Flag-tagged SSB-1, SSB-2, SSB-3 or SSB-4. Cells were lysed, and mixed with BMDM lysates from cells induced to express iNOS. Flag-tagged proteins were immunoprecipitated using anti-Flag antibodies (M2-beads) and separated by SDSPAGE. Co-immunoprecipitation of iNOS was detected by Western blot with anti-iNOS antibodies (upper panel). Membranes were stripped and reprobed with rat anti-Flag antibodies (middle panel). Comparative expression of Flag-tagged proteins in 293T lysates is shown by Western blot (lower panel). (B) SSB-2 residues affecting iNOS binding. Residues in the SSB-2 SPRY domain were mutated to Ala or Phe (for Y120) based on SSB-2 structure and sequence conservation. […] Coimmunoprecipitation of iNOS was detected by Western blot with anti-iNOS antibodies.
# To investigate whether other SSB family members were able to interact with iNOS, 293T cells were transiently transfected with cDNA expressing SSB-1, SSB-2, SSB-3 or SSB-4 with an N-terminal Flag-epitopetag. […] SSB proteins were immunoprecipitated using anti-Flag antibodies coupled to Sepharose and association of iNOS analysed by Western blot. […]
molecule,measurement,setting,value
CC(C)C[C@@H](C=O)NC(=O)[C@H](CC(C)C)NC(=O)[C@H](CC(C)C)NC(=O)OCc1ccccc1 [MG-132] (Cbz-Leu-Leu-Leu-aldehyde),effect on enhanced iNOS degradation,[1],abrogated
B1,binding result,[2],binds
B2,Kd,[3],76.3 µM
same,fold reduced affinity against SSB-2ΔSB,[4],~5000 fold
same,Kd,[5],0.0133 µM
B3,binding result,[6],no binding

# Reference: patent US20120308570A1, “METHODS FOR TREATING DISEASES” (priority 2009, published 2012)
